These results are taken from publication PMC11686378.

The target in assay [1] is DNA primase PriSL (PriS-PriL heterodimer) from P. abyssi, in solution (Pyrococcus abyssi) (UniProt Q9V292).
Assay [2] has the same target. This is another data set of the same source.
The target in assay [3] is Replication Protein A (RPA) heterotrimer from Pyrococcus abyssi, wild type (Pyrococcus abyssi). Nature of the assay: BLI; RPA or RPA^ΔWH nucleoprotein filaments on a 3'-TEG-biotin 50-nt ssDNA held on streptavidin sensors; PriSL (1.56-100 nM) or PolD (15.62-1000 nM) in solution; steady-state analysis; 25 °C, buffer E with 0.2 mg/ml BSA.

Chain of DNA primase PriSL (PriS-PriL heterodimer) from P. abyssi, in solution (Pyrococcus abyssi) (Q9V292 whole entry, chain 1 of 2): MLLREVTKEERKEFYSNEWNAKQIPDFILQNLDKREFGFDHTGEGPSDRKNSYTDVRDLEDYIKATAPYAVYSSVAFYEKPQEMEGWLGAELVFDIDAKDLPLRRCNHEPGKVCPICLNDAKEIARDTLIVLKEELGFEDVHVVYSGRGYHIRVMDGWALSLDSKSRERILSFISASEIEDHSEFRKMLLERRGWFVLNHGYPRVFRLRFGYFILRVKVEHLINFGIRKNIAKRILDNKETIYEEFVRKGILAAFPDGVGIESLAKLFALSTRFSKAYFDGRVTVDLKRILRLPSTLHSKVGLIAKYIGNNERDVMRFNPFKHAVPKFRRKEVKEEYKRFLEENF
Chain of DNA primase PriSL (PriS-PriL heterodimer) from P. abyssi, in solution (Pyrococcus abyssi) (Q9V291 whole entry, chain 2 of 2, further chain): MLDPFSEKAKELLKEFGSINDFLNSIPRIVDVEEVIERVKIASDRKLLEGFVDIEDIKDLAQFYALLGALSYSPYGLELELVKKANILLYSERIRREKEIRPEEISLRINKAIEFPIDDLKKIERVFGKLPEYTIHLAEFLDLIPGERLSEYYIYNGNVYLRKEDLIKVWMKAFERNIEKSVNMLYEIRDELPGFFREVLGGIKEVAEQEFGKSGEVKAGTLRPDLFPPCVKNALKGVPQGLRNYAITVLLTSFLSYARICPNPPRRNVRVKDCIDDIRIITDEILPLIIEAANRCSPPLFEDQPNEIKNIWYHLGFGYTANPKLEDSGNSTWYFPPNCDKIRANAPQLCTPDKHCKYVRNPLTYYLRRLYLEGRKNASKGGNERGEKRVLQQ

As for “RPA^ala-linker, RPA with all 12 glutamic acid residues of the Rpa2 linker substituted with alanine (complex)”, the PriSL primer extension, reduction in long extension products against wild-type RPA, over the RPA concentrations tested in assay [1] amounted to 45%.

In turn, “Replication Protein A (RPA) heterotrimer from Pyrococcus abyssi, wild type (complex)” returned a PriSL primer extension, long products (≥70 nt), with RPA from 0.05 to 0.8 µM in assay [2] of 5 fold.

Usually Kd stands for a measure of binding affinity in units of concentration. In assay [3], “Replicative DNA polymerase PolD (DP1-DP2 heterodimer) from P. abyssi, in solution (complex)” had a Kd of 136 nM.
